Biological target: murine Claudin 18.2 (mCLDN18.2) on stably-transfected HEK293 cells (murine) (UniProt P56857)
Assay: FACS on HEK293-mCLDN18.2 cells

B1: h160C9AA (antibody, human IgG1, lambda, L234A L235A, V domains shown)
VH: EVKLVESGGGLVQPGGSLKLSCAASGFTFNTYAMNWVRQAPGKGLEWVARIRSKYNNYATYYADSVKDRFTISRDDAKNTLYLQMNNLRTEDTAVYYCVRHGNFGNSYVSWFAYWGQGTLVTVSS
VL: QAVVTQEPSLTVSPGGTVTLTCRSSTGAVTTSNYANWVQQKPGQAPRGLIGGTNKRAPGTPARFSGSLLGGKAALTLSGAQPEDEAEYYCALWYSNLWVFGGGTKLTVLG
An MFI (Max) of 543 MFI was found for B1 in this work.

From US20240010748A1
